Drawing on US20260078171A1, this text covers KD App for 3 substances.

Assay [1] deals with A021 (SARS-related coronavirus A021).
The target of assay [2] is GD-Pangolin (GD-Pangolin coronavirus).
The target in assay [3] is CS24 (SARS-related coronavirus CS24).
For assay [4], the target named is Rs4231 (bat coronavirus Rs4231).
Assay [5] concerns the target LYRa11 (bat coronavirus LYRa11).
Assay [6] concerns the target SHC014 (bat coronavirus Rs SHC014).
The target of assay [7] is Civet 007-2004 (civet SARS-related coronavirus 007-2004).
The target in assay [8] is Frankfurt 1 (SARS-CoV isolate Frankfurt 1).
The target in assay [9] is WIV1 (bat coronavirus WIV1).
Assay [10] deals with RaTG13 (bat coronavirus RaTG13).

Sequence of VYD224 (antibody) (VH): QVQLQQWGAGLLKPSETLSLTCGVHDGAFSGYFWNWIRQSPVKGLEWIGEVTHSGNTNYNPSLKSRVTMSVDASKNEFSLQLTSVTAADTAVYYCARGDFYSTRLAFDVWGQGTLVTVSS
Sequence of VYD224 (antibody) (VL): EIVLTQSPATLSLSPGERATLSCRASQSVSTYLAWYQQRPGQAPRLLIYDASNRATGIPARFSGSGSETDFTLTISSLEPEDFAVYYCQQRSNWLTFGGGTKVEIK
Sequence of VYD222 (antibody) (VH): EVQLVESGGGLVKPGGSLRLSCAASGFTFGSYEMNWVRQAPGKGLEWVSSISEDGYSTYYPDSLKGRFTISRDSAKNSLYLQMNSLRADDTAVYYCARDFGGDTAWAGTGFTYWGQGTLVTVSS
Sequence of VYD222 (antibody) (VL): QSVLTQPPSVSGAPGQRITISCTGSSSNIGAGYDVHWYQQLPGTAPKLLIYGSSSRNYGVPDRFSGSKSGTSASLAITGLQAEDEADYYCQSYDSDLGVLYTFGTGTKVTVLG
Sequence of ADI-58125 (antibody) (VH): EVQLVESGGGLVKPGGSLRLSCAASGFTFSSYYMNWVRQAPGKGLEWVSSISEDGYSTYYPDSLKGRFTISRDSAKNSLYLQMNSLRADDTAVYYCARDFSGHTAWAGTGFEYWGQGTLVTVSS
Sequence of ADI-58125 (antibody) (VL): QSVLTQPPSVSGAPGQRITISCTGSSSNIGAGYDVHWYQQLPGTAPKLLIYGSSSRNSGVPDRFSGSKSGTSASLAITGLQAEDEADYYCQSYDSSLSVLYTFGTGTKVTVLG

ADI-58125 (antibody): the KD App in the assay with SARS-CoV-2 (SARS-CoV-2) is 3.2 nM; in [1], 1.07 nM; with SARS-CoV-1 (SARS-CoV), 1.02 nM; in assay [2] it was 1.03 nM; in assay [3], 0.79 nM; in assay [4] it was 1.53 nM. Besides, the KD App came to 0.96 nM in assay [5]; 2.72 nM in [6]; 0.57 nM in assay [7]; 1.83 nM in assay [8]; 1.32 nM in [9].
With VYD222 (antibody), the KD App in the assay with SARS-CoV-2 (SARS-CoV-2) turned out to be 0.54 nM; in assay [1], 0.24 nM; with SARS-CoV-1 (SARS-CoV), 0.44 nM; in [2], 0.15 nM; in [3] it was 0.45 nM; in assay [4] it was 0.49 nM. Moreover, the KD App came out at 0.67 nM in assay [5]; 0.74 nM in [6]; 0.23 nM in [7]; 0.9 nM in assay [8]; 0.97 nM in assay [9].
Take VYD224 (antibody): the KD App with SARS-CoV-2 (SARS-CoV-2) came to 1.68 nM; in assay [1], 13.5 nM; with SARS-CoV-1 (SARS-CoV), 15.6 nM; in [10] it was 0.87 nM; in [2], 1.63 nM; in [3], 15.9 nM. The KD App in assay [4] was determined as 10.8 nM; in [5] it was 0.32 nM; in assay [6] it was 12.3 nM; in [7], 9.13 nM; in [8], 0.93 nM; in assay [9], 0.33 nM.
